Bridges are numbered along the chain shown (N, C = ends). Where no end group is shown, it is not given here.
Legend:
[1] = target: T1, human Tamm-Horsfall protein (human, UniProt P07911 25-587); test: competition studies for binding to Tamm-Horsfall protein
[2] = target: T1, human Tamm-Horsfall protein; test: competitive ELISA; light chains bound in the wells, Tamm-Horsfall protein in solution, linear peptide as inhibitor
Source text: (§1) Peptides known to react with the Tamm-Horsfall protein in the yeast two-hybrid assay were synthesized, cyclized, and used as inhibitors in a competitive ELISA experiment. The peptides were cyclized by adding cysteine residues to the amino and carboxyl-terminal portions of the peptides and generating an intramolecular disulfide bridge (FIG. 4). Cyclization facilitates formation of the loop structure in solution. Both the linear and cyclized peptides inhibited the binding of the Tamm-Horsfall protein to the immunoglobulin light chains bound in the wells of the microtiter plate, but the efficiency of inhibition was increased by cyclization of the peptide inhibitor.

[3] = target: T1, human Tamm-Horsfall protein; test: competitive ELISA; light chains bound in the wells, Tamm-Horsfall protein in solution, cyclized peptide as inhibitor
Source text: as §1

[4] = target: T1, human Tamm-Horsfall protein; test: competitive ELISA (FIG. 7)
Source text: Mutation of the CDR3 sequence to disrupt the loop structure by substituting amino acid residues with phenyalanine confirmed that the secondary structure was an important determinant of binding (FIG. 6). The inhibitory capability of cyclized experimental ([…] (SEQ ID NO:32)) and control ([…] (SEQ ID NO:33)) peptides were then compared in a competitive ELISA assay. The experimental peptide served as a very efficient inhibitor of the binding interactions between the human Tamm-Horsfall protein and six different human immunoglobulin light chains (FIG. 7).

Binder: MQGTHWPPLT (also called SSH23 CDR3 peptide) [synthetic peptide (MQGTHWPPLT (SEQ ID NO:3)) identical to the CDR3 region of SSH23]
- binding result [1]: binds

Binder: QSYDNTLSGSYVF (also called uncyclized peptide 1) [peptide 1 (QSYDNTLSGSYVF (SEQ ID NO:1)), linear]
- IC50 [2]: 55 nM

Binder: LSADSSGSYLYVF (also called uncyclized peptide 2) [peptide 2 (LSADSSGSYLYVF (SEQ ID NO:2)), linear]
- IC50 [2]: 90.9 nM

B1: peptide 2 (LSADSSGSYLYVF (SEQ ID NO:2)), cyclized (peptide)
peptide: CLSADSSGSYLYVFC
modifications: disulfide 1-15
notes: Built from the words 'cyclized by adding cysteine residues to the amino and carboxyl-terminal portions of the peptides'; also called cyclized peptide 2
- IC50 [3]: 24 nM

B2: cyclized peptide (CLSADSSGSYLYVC) (SEQ ID NO:32) (peptide)
peptide: CLSADSSGSYLYVC
modifications: disulfide 1-14
notes: also called cyclized experimental peptide; experimental peptide
- binding result [4]: binds
